Molecular target: Delta-RBD (SARS-CoV-2, UniProt P0DTC2)
Assay: BLI

B1: sACE2_(2).S14-IgG1 (Fc fusion)
chain: QSTIEEQAKYFLDKFNHEAEDLFYQSSLASWNYNTNITEENVQNMNNAGDKWSAFLKEQSTTAQMYPLQEIQNLTVKLQLQALQQNGSSVLSEDKSKRLNTILNTMSTIYSTGKVCNPDNPQECLLLEPGLNEIMANSLDYNERLWAWESWRSEVGKQLRPLYEEYVVLKNEMARANHYEDYGDYWRGDYEVNGVDGYDYSRGQLIEDVEHTFEEIKPLYEHLHAYVRAKLMNAYPSYISPIGCLPAHLLGDMWGRFWTNLYSLTVPFGQKPNIDVTDAMVDQAWDAQRIFKEAEKFFVSVGLPNMTQGFWEYSMLTDPGNVQKAVCHPTAWDLGKGDFRILMCTKVTMDDFLTAHHEMGHIQYDMAYAAQPFLLRNGANEGFHEAVGEIMSLSAATPKHLKSIGLLSPDFQEDNETEINFLLKQALTIVGTLPFTYMLEKWRWMVFKGEIPKDQWMKKWWEMKREIVGVVEPVPHDETYCDPASLFHVSNDYSFIRYYTRTLYQFQFQEALCQAAKHEGPLHKCDISNSTEAGQKLFNMLRLGKSEPWTLALENVVGAKNMNVRPLLNYFEPLFTWLKDQNKNSFVGWSTDWSPYADQSIKVRISLKSALGDKAYEWNDNEMYLFRSSVAYAMRQYFLKVKNQTILFGEEDVRVANLKPRISFNFFVTAPKNVSDIIPRTEVEKAIRMSRSRINDAFRLNDSSLEFLGIQPTLG
B1 was tested, and the koff was 0.00087 s⁻¹.
